± gives the uncertainty stated by the source.
Assay: amyloid nucleation score (Sup35N fusion, yeast selection) (log enrichment); library NNK3; higher = more nucleation; inactive = no reads after selection
In short: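 The nucleation score is the log enrichment of output over input reads, calculated with DiMSum and centred on the mode score of non-aggregating sequences. Sequences with under 100 input reads were excluded. Reads came from Illumina sequencing of plasmid inserts from psi-negative yeast expressing Sup35N fused to peptides of 20 random codons, induced 24 hours with 100 μM copper sulfate and grown 7 days at 30°C without adenine and uracil.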

Substance | amyloid nucleation score
DLRGETNSYSGVCQERK | 0.104 ± 0.69
DLSRTSAVSVRKRVCVFSLH | inactive
DLTMVQLMIFMLIIIFFNLL | inactive
DLVCTSLTRVAYRELIVWWF | inactive
DLVFWTINWSPGAHGTTSSG | inactive
DMVLLWQEFDCGKVACLSGG | inactive
DMYPFPVCR | inactive
DNSFSPLASGLYQLKGVELI | inactive
DNSVNKYKKTNVSVISARVR | inactive
DPTILSKVMLMEDTVKAREL | inactive
DQGLNC | inactive
DQSNSSEGILCYNLCVLMTE | 2.43 ± 0.072
DRAFYYTLKYLRD | inactive
DRAMFYDALDNARVISKLRG | inactive
DRDMVCMSEL | inactive
DRGSMSHILASVSTFNVYIS | 1.2 ± 0.1
DRILAYKTYLGNYLLVVLYN | inactive
DRNSYVMCYPWGVVWCNHKS | 1.03 ± 0.14
DRRKAEFILTMGPEWYQQLN | inactive
DRTMLFVTCFNFRRSS | 1.64 ± 0.078
DRVGRRLIGLRLAQLLGERF | inactive
DSASLGLNLP | inactive
DSDVWEPCFELEESKL | inactive

Substance | amyloid nucleation score
DSFNLSDSGWSTLYIRAWDG | inactive
DSFRHEGRVWLWYSSTTKRF | inactive
DSGSHNDCNGCSNY | inactive
DSGVSEQWGGGIELILSWCL | inactive
DSICDTCYAVGCLPRVCWVV | inactive
DSIVICQFIFDIKFLDKRKC | 1.77 ± 0.085
DSLKSKFSKVLGPLNRACFY | inactive
DSNLVFFGSIFFTVLMWLTK | inactive
DSNWRNMRGLHFY | inactive
DTDWGRMWQGGSVYGYAFCA | inactive
DTLPHAVKLIEKM | inactive
DTMNLRWSVWRRHVWCLTGE | inactive
DTREN | inactive
DVARPCSI | inactive
DVGAPCGRFRPHFTNTCLDV | inactive
DVGMGRHGKAMK | inactive
DVGYSDMLVA | inactive
DVLGCPNMEVCWSGFLSQNY | inactive
DVTYECGRS | inactive
DYALALVFAYCYEDNRMCCP | inactive
DYITYVYYVSVRF | -0.124 ± 0.82
DYTSYILLS | inactive
DYYIAPRVPYHVTTWNKDYL | inactive

Substance | amyloid nucleation score
ECLKVRW | inactive
ECSRNAVCF | inactive
EDNTKLRSWGELLGVCGKLS | inactive
EERIT | inactive
EFAEMHTAVLVERISSKVII | inactive
EFFSCYTEYPFRPAFLILTT | inactive
EFFYINAMPVLYIDPYTSCF | inactive
EFGLRWMS | 0.447 ± 0.34
EFPRGLGSR | -0.236 ± 1
EFVVCTQCRVCDLIAFLGRN | 2.84 ± 0.065
EGFYTFALGRICGFWSYNFC | 1.23 ± 0.14
EGGMTTFYFC | 2.13 ± 0.093
EGRDQDNIPLMNTTGMCFGA | inactive
EGSYVYIKDYI | inactive
EGWIRVFTEFNFSS | 0.263 ± 0.46
EHFRGRVLVRCLL | inactive
EHLRMCNLATIKLILLNVHP | inactive
EIAVVRKVLYPYCRYVLICS | inactive
EILRMCH | inactive
EIRRCTPCLLWVLLLFAINR | inactive
EISTVLNLHVRRIAGRFVMK | inactive
EIVSWVDHFYWTWTGYHKCW | -0.886 ± 1
EKANLLIWDFKKDMLRTVGG | inactive

Substance | amyloid nucleation score
EKLIIELLCTT | inactive
EKSCCCSVKI | inactive
EKWQKDLSNKHVRNAVVAWS | inactive
ELEYAHVIRGKKRCHSSRVV | inactive
ELFDERQRLEPI | inactive
ELGHSKSTMFNVYYVVWSRC | inactive
ELLGGLSLLGMSIFVLLSSL | inactive
ELLWGPMGSNWKSLVVYFSH | inactive
ELSACCYAMSWMVDCVRASL | 1.34 ± 0.1
ELSHQVCYSVGCACETSDGQ | inactive
ELVGIIDGCLKNMSSFTMRV | inactive
EMDTCIQWLSRVLSGPDSFF | -0.72 ± 0.8
EMEASRG | inactive
EMLCVDYWTFGYMVLREVTI | inactive
EMLGHHVGSLINRRVITVLR | inactive
EMLSIENGRFTKCKLGECVR | -0.137 ± 0.52
ENSSLFFLRDCELWWNVRTR | 1.59 ± 0.094
EPITASYMRILNCACVAYCG | inactive
EQVFRYIL | inactive
ERDFLF | inactive
ERESKNLLQVAYSGYCIVWA | inactive
ERFIKN | inactive
ERFRSLSGTVEEG | inactive

Substance | amyloid nucleation score
ERGGSTFCSTYFTVLKHRSG | inactive
ERLIPLPHISVIS | inactive
ERNFPGLFIQLVHLQPEARM | 0.631 ± 0.34
ERRIKDLTECSNR | inactive
ESDAFKLCAYDLNIMNISRF | inactive
ESFVGEGDRSWSGHGNFITV | inactive
ESGNS | inactive
ESRKWAAEGPSFICTCLLSL | inactive
ESSLWYI | inactive
ESTGMPTALYSLAVTVRVDK | 0.016 ± 0.33
ESVGLISWFRVPIYSN | inactive
ESVRRMLLTLGAHWGSPIHF | inactive
ESYTWL | inactive
ETAGMGTPSVRAHGLASGSV | -0.672 ± 1.8
ETLYSCQKGGQRQRKAG | inactive
ETNQSMY | 1.51 ± 0.075
ETPSALCILYVFYCHAYWSH | inactive
ETVGAPRSLYYST | inactive
ETWEIGRSKMGHRDCFCNYM | inactive
ETYWQINSTECKFTSFQRLF | inactive
EVCLGVSGRHGANSVVIDWT | inactive
EVCWVSEWQLIVMRFSCTWL | inactive
EVGLRSLMFHSGQGIRMYNY | inactive

Substance | amyloid nucleation score
EVHLSINEINLYVIEDEGSL | 0.013 ± 0.32
EVPLDVAVKGRLW | inactive
EVPNFYNLPSWSA | inactive
EVRLLGYLVTRNDM | inactive
EVYDLESGVSITYMCMCVVL | inactive
EVYMFFSCPSSNHVWDSRYV | inactive
EWFEKIFIRLTGHRTKFYNS | inactive
EWKWQSKHTITYFLHHCSEH | 0.534 ± 0.15
EYIAI | inactive
EYQLYCVYHLYANLDTVVRT | inactive
FAIFGSWPKFFSCTP | 0.378 ± 0.41
FALNL | inactive
FALSVVQG | inactive
FANQPGVNYRFTPPSCCFLT | inactive
FARVRVNISFPISKSFCNIM | 2.34 ± 0.083
FCALALTQMLINMAH | inactive
FCCHYSKLFRR | 0.641 ± 0.41
FCDALMIVTEFGEGLWARWR | inactive
FCEFDIDVVLCTHRLYCNRY | inactive
FCEFWYLNSRKEATELRP | inactive
FCEMHYRLDN | 0.424 ± 0.17
FCFSSVEKNWLQRVMFLRVS | inactive
FCLYTKLNVSIRGISDAYVY | inactive

Substance | amyloid nucleation score
FCRPNSWI | 0.53 ± 0.38
FDFKAYESCCSLLRYLMDPW | inactive
FDIFQGDINLHFLDVNITR | 0.397 ± 0.75
FDLEMSSGFPTIELWMR | inactive
FDLWFIRIGV | -0.221 ± 0.46
FDMFVLGMGCGILQYLICFK | inactive
FDSDRCIMCLTHLWILWGLR | inactive
FDTYTLSNTF | inactive
FDVFISENNDAGSHNVEMYQ | inactive
FECKLNRGWSKQARWLNKLY | 0.177 ± 0.38
FELRVV | inactive
FELSNVHGSLNRAKV | -0.526 ± 0.8
FELSYNWYNSNFVRRNVPFP | inactive
FERDVFDQYEVVQWGARGDG | inactive
FETGCW | inactive
FEVWRTGLCDRARGTVNRLK | inactive
FEYLLGKLCRLCSNAGRSLS | inactive
FFEFSTSVVYN | inactive
FFFLLKMRHKPSASANLNSN | inactive
FFFRLDCRLYS | inactive
FFFTATLNQLSYTYIFSKLA | inactive
FFFYFLRFSDFNWFINWLIS | inactive
